According to patent US11434299 (TENEOBIO, dated 2022):

B1: SEQ ID NO 29 (antibody, V domains shown)
VH: EVQLLESGGGLVQPGGSLRLSCAASGFTFSSYAMNWVRQAPGKGLEWVSGIIGSGGSTYYADSVKGRFTISRDNSKNTLYLQMNSLRAEDTAVYYCVKDWNTTMITERGQGTLVTVSS
notes: UniAb: CH1 deleted, no light chain; HEK supernatant
B2: SEQ ID NO 46 (antibody, V domains shown)
VH: EVQLLESGGGLVQPGGSLRLSCAASGFTFSSYAMSWVRQAPGKGLEWVSGIIGSGGSTFYADSVKGRFTISRDNSKNTLYLQMNSLRAEDTAVYYCVKDWNTTMITERGQGTLVTVSS
notes: as for B1
B3: SEQ ID NO 27 (antibody, V domains shown)
VH: EVQLLESGGGLVQPGGSLRLSCAASGFTFSSYAMNWVRQAPGKGLEWVSGLTGNGDSTYYADSVKGRFTISRDNSKNTVYLQMNSLRAEDTAVYYCVKDWNTTMITERGQGTLVTVSS
notes: as for B1
B4: SEQ ID NO 32 (antibody, V domains shown)
VH: EVQLLESGGGLVQPGGSLRLSCAASGFTFSSYAMSWVRQAPGKGLEWVSGLTGSGDSTYYADSVKGRFTISRDNDKNTVYLQMNSLRAEDTAVYYCVKDWNTTMITERGQGTLVTVSS
notes: as for B1
B5: SEQ ID NO 50 (antibody, V domains shown)
VH: EVQLLESGGGLVQPGGSLRLSCAASGFTFSSYAMSWVRQAPGKGLEWVSGIIGSGGTTYYADSVKGRFTISRDNSKNTLNLQMNSLRAEDTAIYYCVKDWNTTMITERGQGTLVTVSS
notes: as for B1
B6: SEQ ID NO 42 (antibody, V domains shown)
VH: EVQLLESGGGLVQPGGSLRLSCAASGFTFSNYAMNWVRQAPGKGLEWVSGIIGSGGSTYYADSVKGRFTISRDNSKNTLYLQMNSLRAEDTAVYYCVKDWNTTMITERGQGTLVTVSS
notes: as for B1
B7: SEQ ID NO 52 (antibody, V domains shown)
VH: EVQLLESGGGLVQPGGSLRLSCAASGFTFSSYAMNWVRQAPGKGLEWVSGIVGGGGTSYYADSVRGRFTISRDNSKNTLYLQMNSLRAEDTAVYYCVKDWNTTMITERGQGTLVTVSS
notes: as for B1
B8: SEQ ID NO 40 (antibody, V domains shown)
VH: EVQLLESGGGLVQPGGSLRLSCAASGFTFSSYAMSWVRQAPGKGLEWVSGIIGSGGSTYYADSVKGRFTISRDNSKNTLYLQMNSLRVEDTAVYYCVKDWNTTMITERGQGTLVTVSS
notes: as for B1
B9: SEQ ID NO 22 (antibody, V domains shown)
VH: EVQLLESGGGLVQPGGSLRLSCAASGFTFSSYAMTWVRQAPGKGLEWVSGITENGGSTYYADSVKGRFTISRDNSKNTLDLQMNSLRAEDTAVYYCVKDWNTTMITERGQGTLVTVSS
notes: as for B1
B10: SEQ ID NO 48 (antibody, V domains shown)
VH: EVQLLESGGGLVQPGGSLRLSCAASGFTFSNYAMTWIRQAPGKGLEWVSGITGDGGSTFYADSVKGRFTISRDNSKNTLYLQMNSLRAEDTAVYYCVKDWNTTMITERGQGTLVTVSS
notes: as for B1
B11: SEQ ID NO 51 (antibody, V domains shown)
VH: EVQLLESGGGLVQPGGSLRLSCAASGFTFSNYAMNWVRQAPGKGLEWVSGITGSGGSTYYADSVKGRFTISRDNSKNTLYLQMNSLRVEDTAVYYCVKDWNTTMITERGQGTLVTVSS
notes: as for B1
B12: SEQ ID NO 24 (antibody, V domains shown)
VH: EVQLLESGGGLVQPGGSLRLSCAASGFTFSSYAMSWVRQAPGKGLEWVSGIIGSGGSTYYADSVKGRFSISRDNSKNTLDLQMNSLRAEDTAVYYCVKDWNTTMITERGQGTLVTVSS
notes: as for B1
B13: SEQ ID NO 43 (antibody, V domains shown)
VH: EVQLLESGGGLVQPGGSLTLSCAASGFTFSNYAMNWVRQAPGKGLEWVSGIIGSGATTYYADSVKGRFTISRDNSKNTLNLQMNSLRAEDTAIYYCVKDWNTTMITERGQGTLVTVSS
notes: as for B1
B14: SEQ ID NO 20 (antibody, V domains shown)
VH: EVQLLESGGGLAQPGGSLRLSCAASGFTFSSYAMNWIRQAPGKGLEWVSGISGSGGSTYYADSVKGRFTISRDNSKNTVYLQMNSLRAEDTAVYYCVKDWNTTMITERGQGTLVTVSS
notes: as for B1
B15: SEQ ID NO 39 (antibody, V domains shown)
VH: EVQLLESGGGLVQPGGSLRLSCAASGFTFSNYAMSWVRQAPGKGLEWVSGIIGSGGSTYYADSVKGRFSISRDNSKNTLYLQMNSLRAEDTAVYYCVKDWNTTMITERGQGTLVTVSS
notes: as for B1
B16: SEQ ID NO 23 (antibody, V domains shown)
VH: EVQLLESGGGLVQPGGSLRLSCAASGFTFSSYAMSWVRQAPGKGLEWVSGITGDGGSTFYADSVKGRFTISRDNSKNTLYLQMNSLRAEDTAVYYCVKDWNTTMITERGQGTLVTVSS
notes: as for B1
B17: SEQ ID NO 28 (antibody, V domains shown)
VH: EVQLLESGGGLVQPGGSLRLSCAASGFTFSSYAMNWVRQAPGKGLEWVSGITGSGGSTYYADSVKGRFSISRDNSKNTLDLQMNSLRAEDTAVYYCVKDWNTTMITERGQGTLVTVSS
notes: as for B1
B18: SEQ ID NO 34 (antibody, V domains shown)
VH: EVQLLESGGGLVQPGGSLRLSCAASGFTFSRYAMNWIRQAPGKGLEWVSGIVGSGGNTYYADSVKGRFSISRDNSKNTLYLQMNSLRAEDTAVYYCVKDWNTTMITERGQGTLVTVSS
notes: as for B1
B19: SEQ ID NO 38 (antibody, V domains shown)
VH: EVQLLESGGGVVQPGRSLRLSCAASGFTFSSYAMSWVRQAPGKGLEWVSGIIGSGGSTYYADSVKGRFTISRDNSKNTLYLQMNSLRAEDTAVYYCVKDWNTTMITERGQGTLVTVSS
notes: as for B1
B20: SEQ ID NO 41 (antibody, V domains shown)
VH: EVQLLESGGGVVQPGRSLRLSCAASGFTFSNYAMNWVRQAPGKGLEWVSGIIGSGGSTYYADSVKGRFTISRDNSKNTLYLQMNSLRAEDTAVYYCVKDWNTTMITERGQGTLVTVSS
notes: as for B1
B21: SEQ ID NO 44 (antibody, V domains shown)
VH: EVQLLESGGGLVQPGGSLRLSCAASGFTFSNYAMSWVRQAPGKGLEWVSGIIGSGGSTYYADSVKGRFTISRDNSKNTLYLQMNSLRAEDTAVYYCVKDWNTTMITERGQGTLVTVSS
notes: as for B1
B22: SEQ ID NO 49 (antibody, V domains shown)
VH: EVQLLESGGGLVQPGGSLRLSCAASGFTFSSYAMTWIRQAPGKGLEWVSGIVGGGGTSYYADSVRGRFTISRDNSKNTLYLQMNSLRAEDTAVYYCVKDWNTTMITERGQGTLVTVSS
notes: as for B1
B23: SEQ ID NO 21 (antibody, V domains shown)
VH: EVQLLESGGGLVQPGRSLRLSCAASGFTFTNYAMNWVRQAPGKGLEWVSGISGGGGSTYYADSVKGRFTISRDNSKNTLYLQMNSLRAEDTAVYYCVKDWNTTMITERGQGTLVTVSS
notes: as for B1
B24: SEQ ID NO 47 (antibody, V domains shown)
VH: EVQLLESGGGLVQPGESLRLSCAASGFTFSNYAMNWVRQAPGKGLEWVSGIVGGGGTSYYADSVRGRFTISRDNSKNTLYLQMNSLRAEDTAVYYCVKDWNTTMITERGQGTLVTVSS
notes: as for B1
B25: SEQ ID NO 35 (antibody, V domains shown)
VH: EVQLLESGGGLVQPGGSLRLSCAASGFTFSSYAMSWVRQAPGKGLEWVSGITGSGGSTYYADSVKGRFSISRDNSKNTLDLQMNSLRAEDTAVYYCVKDWNTTMITERGQGTLVTVSS
notes: as for B1
B26: SEQ ID NO 33 (antibody, V domains shown)
VH: EVQLLESGGGLVQPGGSLRLSCAASGFTFSNYAMTWIRQAPGKGLEWVSGITGDGGSTFYADSVKGRFSISRDNSKNTLDLQMNSLRAEDTAVYYCVKDWNTTMITERGQGTLVTVSS
notes: as for B1
B27: SEQ ID NO 30 (antibody, V domains shown)
VH: EVQLLESGGGLVQPGGSLRLSCAASGFTFSSYAMNWVRQAPGKGLEWVSGIIGSGGSTYYADSVKGRFTISRDNSKNTVYLQMNSLRAEDTAVYYCVKDWNTTMITERGQGTLVTVSS
notes: as for B1
B28: SEQ ID NO 36 (antibody, V domains shown)
VH: EVQLLESGGGLVQPGGSLRLSCAASGFTFSNYAMNWVRQAPGNGLEWVSGLTGSGGSTYYADSVKGRFTISRDNSKNTVYLQMNSLRAEDTAVYYCVKDWNTTMITERGQGTLVTVSS
notes: as for B1
B29: SEQ ID NO 37 (antibody, V domains shown)
VH: EVQLLESGGGLVQPGGSLRLSCAASGFTFTNYAMNWVRQAPGKGLEWVSGIIGSGGSTYYADSVKGRFTISRDNSKNTLYLQMNSLRAEDTAVYYCVKDWNTTMITERGQGTLVTVSS
notes: as for B1
B30: SEQ ID NO 45 (antibody, V domains shown)
VH: EVQLLESGGGVVQPGRSLRLSCAASGFTFSSYAMNWVRQAPGKGLEWVSGIIGSGGSTYYADSVKGRFTISRDNSKNTLYLQMNSLRAEDTAVYYCVKDWNTTMITERGQGTLVTVSS
notes: as for B1
B31: SEQ ID NO 31 (antibody, V domains shown)
VH: EVQLLESGGGLVQPGGSLRLSCAASGFTFSSYAMNWVRQAPGKGLEWVSGITGSGDSTYYAASVKGRFSISRDNSQNTLDLQMNSLRAEDTAVYYCVKDWNTTMITERGQGTLVTVSS
notes: as for B1

The binders below were run against T1, human BCMA (B-Cell Maturation Antigen) on NCI-H929 cells (human, UniProt Q02223 1-184) (assay: flow cytometry, HEK supernatants on NCI-H929 cells (BCMA+)).
T1 construct: whole, on cells; Endogenous BCMA on NCI-H929 myeloma cells; also called TNFRSF17; H929 cells (BCMA+, lambda-)
T1 sequence (looked up): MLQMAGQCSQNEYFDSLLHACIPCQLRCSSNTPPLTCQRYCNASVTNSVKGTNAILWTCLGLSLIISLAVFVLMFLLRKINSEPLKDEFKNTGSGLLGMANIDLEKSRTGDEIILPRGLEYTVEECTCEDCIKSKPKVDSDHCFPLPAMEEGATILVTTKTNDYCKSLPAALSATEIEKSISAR
Experimental: Supernatants of all antibodies were also tested by flow cytometry for binding to RPMI-8226 cells (BCMA+, lambda+) and H929 cells (BCMA+, lambda−). The samples were measured by flow cytometry using a Guava easyCyte 8HT instrument from EMD Millipore and analyzed using guavaSoft. Bound antibodies were detected with goat anti-human IgG F(ab')_2 conjugated to PE (Southern Biotech 2042-09). All antibodies were diluted in PBS with 1% BSA. Positive staining was determined by comparison to staining with a human IgG1 isotype control. The NCI-H929 and RPMI-8226 cell lines are human multiple myeloma lines expressing human BCMA, which were obtained from the American Type Culture Collection (ATCC) and cultured according to ATCC recommendations.
B1: binds. B2: binds. B3: binds. B4: binds. B5: binds. B6: binds. B7: binds. B8: binds. B9: binds. B10: binds. B11: binds. B12: binds. B13: binds. B14: binds. B15: binds. B16: binds. B17: binds. B18: binds. B19: binds. B20: binds. B21: binds. B22: binds. B23: binds. B24: binds. B25: binds. B26: binds. B27: binds. B28: binds. B29: binds. B30: binds. B31: binds.
